# Measured values published in PMC10786891, “Massively parallel profiling of RNA-targeting CRISPR-Cas13d”.
# Where a chain is given by its changes, count along the chain named. Names may count otherwise.
# T1: EsCas13d, nuclease-dead (Eubacterium siraeum, UniProt B0MS50, R295A;H300A;R849A;H854A)
# T1 sequence: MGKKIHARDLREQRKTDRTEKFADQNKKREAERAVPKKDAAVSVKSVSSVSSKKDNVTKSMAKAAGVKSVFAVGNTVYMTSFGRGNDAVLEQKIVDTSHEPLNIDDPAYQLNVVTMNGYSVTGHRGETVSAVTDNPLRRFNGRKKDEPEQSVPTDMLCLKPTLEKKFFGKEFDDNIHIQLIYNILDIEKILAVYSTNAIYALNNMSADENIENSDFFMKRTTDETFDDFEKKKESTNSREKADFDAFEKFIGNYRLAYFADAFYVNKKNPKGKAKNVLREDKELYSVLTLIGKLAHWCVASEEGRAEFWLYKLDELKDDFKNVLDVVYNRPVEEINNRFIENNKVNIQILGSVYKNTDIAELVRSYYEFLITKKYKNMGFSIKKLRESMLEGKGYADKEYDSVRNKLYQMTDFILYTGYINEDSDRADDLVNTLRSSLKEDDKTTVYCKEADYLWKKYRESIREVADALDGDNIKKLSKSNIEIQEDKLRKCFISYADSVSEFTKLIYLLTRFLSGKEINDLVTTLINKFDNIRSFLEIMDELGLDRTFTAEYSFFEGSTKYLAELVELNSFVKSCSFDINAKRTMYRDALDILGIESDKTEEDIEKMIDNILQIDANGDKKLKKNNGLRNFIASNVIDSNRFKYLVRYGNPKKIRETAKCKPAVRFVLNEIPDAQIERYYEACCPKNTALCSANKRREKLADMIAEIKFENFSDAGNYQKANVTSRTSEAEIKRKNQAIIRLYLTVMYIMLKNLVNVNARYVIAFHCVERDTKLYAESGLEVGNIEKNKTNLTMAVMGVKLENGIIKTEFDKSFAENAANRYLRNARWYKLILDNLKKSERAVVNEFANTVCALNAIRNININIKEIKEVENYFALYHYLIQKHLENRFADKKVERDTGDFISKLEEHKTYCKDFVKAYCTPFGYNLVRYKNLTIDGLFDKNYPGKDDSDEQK
# B1: target 1 complement block 5-9 (mixed)
# RNA 1: CACCCGUGCAAAAAUGCAGGGGUCUAAAACUGAGCGGAUAACCUCUCUAUGG
# RNA 2: GGGAAUGGAUCCACAUCUACGAAUUCGUACCAUAGAGAGGUUUAGGCCUCACCGAGAUCGGAAGAGCACACGU
# B2: target 1 C6U,U11A (mixed)
# RNA 1: B1 RNA 1
# RNA 2: B1 RNA 2 with U41A, U43A, A44U, G45C, G46U, C47G
# B3: target 1 insC 3' of 10,insU 3' of 1 (mixed)
# RNA 1: B1 RNA 1
# RNA 2: GGGAAUGGAUCCACAUCUACGAAUUCGUACCAUAGAGAGGUUCAUCCGCUCAUCCGAGAUCGGAAGAGCACACGU
# B4: target 1 insC 3' of 8,insA 3' of 3 (mixed)
# RNA 1: B1 RNA 1
# RNA 2: B3 RNA 2 with C43A, A44U, U45C, C51A, A52C, U53A
# B5: target 1 G17U (mixed)
# RNA 1: B1 RNA 1
# RNA 2: B1 RNA 2 with G35U, U43A, A44U, G45C, G46C, C47G
# B6: target 1 C6G (mixed)
# RNA 1: B1 RNA 1
# RNA 2: B1 RNA 2 with U43A, A44U, G45C, C47G
# B7: target 1 A1U,C21U (mixed)
# RNA 1: B1 RNA 1
# RNA 2: B1 RNA 2 with C31U, U43A, A44U, G45C, G46C, C47G, A51U
# B8: target 1 del8 (mixed)
# RNA 1: B1 RNA 1
# RNA 2: GGGAAUGGAUCCACAUCUACGAAUUCGUACCAUAGAGAGGUUACCGCUCACCGAGAUCGGAAGAGCACACGU
# B9: target 1 insG 3' of 18,insG 3' of 7 (mixed)
# RNA 1: B1 RNA 1
# RNA 2: GGGAAUGGAUCCACAUCUACGAAUUCGUACCAUAGGAGAGGUUAUCGCGCUCACCGAGAUCGGAAGAGCACACGU
# B10: target 1 C4U,U10A (mixed)
# RNA 1: B1 RNA 1
# RNA 2: B1 RNA 2 with U42A, U43A, A44U, G45C, G46C, C47G, C48U
# B11: target 1 A1C,G17U (mixed)
# RNA 1: B1 RNA 1
# RNA 2: B1 RNA 2 with G35U, U43A, A44U, G45C, G46C, C47G, A51C
# B12: target 1 insG 3' of 6,insG 3' of 6 (mixed)
# RNA 1: B1 RNA 1
# RNA 2: B3 RNA 2 with C43A, A44U, U45C, C47G, C49G, U50C, C51U, A52C, U53A
# B13: target 1 insC 3' of 10,insA 3' of 2 (mixed)
# RNA 1: B1 RNA 1
# RNA 2: B3 RNA 2 with U53A
# B14: target 1 insC 3' of 10,insG 3' of 1 (mixed)
# RNA 1: B1 RNA 1
# RNA 2: B3 RNA 2 with U53G
# B15: target 1 insC 3' of 10,insC 3' of 1 (mixed)
# RNA 1: B1 RNA 1
# RNA 2: B3 RNA 2 with U53C
# B16: target 1 insC 3' of 10,insU 3' of 9 (mixed)
# RNA 1: B1 RNA 1
# RNA 2: B3 RNA 2 with C46U, G48C, C49G, U50C, C51U, A52C, U53A
# B17: target 1 U10G,A20C (mixed)
# RNA 1: B1 RNA 1
# RNA 2: B1 RNA 2 with A32C, U42G, U43A, A44U, G45C, G46C, C47G
# B18: target 1 A1C,C21U (mixed)
# RNA 1: B1 RNA 1
# RNA 2: B1 RNA 2 with C31U, U43A, A44U, G45C, G46C, C47G, A51C
# B19: target 1 del1,del7 (mixed)
# RNA 1: B1 RNA 1
# RNA 2: GGGAAUGGAUCCACAUCUACGAAUUCGUACCAUAGAGAGGUUAUCGCUCCCGAGAUCGGAAGAGCACACGU
# B20: target 1 A1G,C21U (mixed)
# RNA 1: B1 RNA 1
# RNA 2: B1 RNA 2 with C31U, U43A, A44U, G45C, G46C, C47G, A51G
# B21: target 1 A1U,C4G (mixed)
# RNA 1: B1 RNA 1
# RNA 2: B1 RNA 2 with U43A, A44U, G45C, G46C, C47G, C48G, A51U
# B22: target 1 C2G,G12C (mixed)
# RNA 1: B1 RNA 1
# RNA 2: B1 RNA 2 with G40C, U43A, A44U, G45C, G46C, C47G, C50G
# B23: target 1 C7U,C22A (mixed)
# RNA 1: B1 RNA 1
# RNA 2: B1 RNA 2 with C30A, U43A, A44U, G45U, G46C, C47G
# B24: target 1 insU 3' of 6,insC 3' of 5 (mixed)
# RNA 1: B1 RNA 1
# RNA 2: B3 RNA 2 with C43A, A44U, U45C, C47U, U50C, C51U, A52C, U53A
# B25: target 1 C21U (mixed)
# RNA 1: B1 RNA 1
# RNA 2: B1 RNA 2 with C31U, U43A, A44U, G45C, G46C, C47G
# B26: target 1 U8C,C22U (mixed)
# RNA 1: B1 RNA 1
# RNA 2: B1 RNA 2 with C30U, U43A, A44C, G45C, G46C, C47G
# B27: target 1 U3G,U19G (mixed)
# RNA 1: B1 RNA 1
# RNA 2: B1 RNA 2 with U33G, U43A, A44U, G45C, G46C, C47G, U49G
# B28: target 1 U3G,C4A (mixed)
# RNA 1: B1 RNA 1
# RNA 2: B1 RNA 2 with U43A, A44U, G45C, G46C, C47G, C48A, U49G
# B29: target 1 insA 3' of 5,insA 3' of 3 (mixed)
# RNA 1: B1 RNA 1
# RNA 2: B3 RNA 2 with C43A, A44U, U45C, C47G, G48A, C51A, A52C, U53A
# B30: target 1 del2,del7 (mixed)
# RNA 1: B1 RNA 1
# RNA 2: B19 RNA 2 with C49A
# B31: target 1 insC 3' of 15,insC 3' of 10 (mixed)
# RNA 1: B1 RNA 1
# RNA 2: B9 RNA 2 with G36A, A37G, G38C, A44C, U45A, C46U, G47C
# B32: target 1 insU 3' of 15,insU 3' of 14 (mixed)
# RNA 1: B1 RNA 1
# RNA 2: B9 RNA 2 with G36A, A37G, G38U, G40U, U42G, A44U, U45A, C46U, G47C
# B33: target 1 complement block 6-14 (mixed)
# RNA 1: B1 RNA 1
# RNA 2: B1 RNA 2 with A38U, G39C, G40C, U41A, U42A, C47G
# Target: T1, EsCas13d, nuclease-dead
# Assay: crRNA (strand 1, pre-loaded); Mg2+; 40 mM Tris-HCl pH 7.5, 150 mM NaCl, 6 mM MgCl2, 1 mM DTT, 0.1% Tween-20, 0.2 mg/ml BSA; 25 C; 10 min per concentration, then washed
# Conditions: tags: His6-TwinStrep-SUMO cleaved; N-terminal SNAP kept (SNAP-Surface 488); label: 3' end held by stalled T7 RNA polymerase
row,Binder,Kd [nM]
1,B1,17.2 ± 0.7
2,B2,38.2 ± 2.4
3,B3,26 ± 4
4,B4,11.8 ± 0.7
5,B5,17 ± 1.3
6,B6,8.37 ± 0.31
7,B7,7.6 ± 0.4
8,B8,10.5 ± 0.6
9,B9,34.9 ± 3
10,B10,47 ± 15
11,B11,34 ± 9
12,B12,11.4 ± 0.5
13,B13,19.4 ± 2.4
14,B14,15.5 ± 1.4
15,B15,13.5 ± 1
16,B16,66 ± 27
17,B17,76 ± 29

row,Binder,Kd [nM]
1,B18,13 ± 4
2,B19,9.7 ± 0.6
3,B20,6.38 ± 0.24
4,B21,6.11 ± 0.25
5,B22,8.4 ± 0.8
6,B23,11 ± 0.5
7,B24,13.9 ± 0.8
8,B25,6.47 ± 0.24
9,B26,28 ± 4
10,B27,35.9 ± 2.7
11,B28,4.19 ± 0.3
12,B29,6.8 ± 0.6
13,B30,6.62 ± 0.24
14,B31,17.3 ± 1.1
15,B32,53 ± 4
16,B33,69 ± 27
